The values below are quoted from earlier work in patent US11819552B2, “Antibody-drug conjugates targeting uPARAP” (RIGSHOSPITALET, priority 2016, dated 2023).

Holding throughout (settings): Jürgensen et al., 2014; cited from earlier work
For data set [1], the system named is uPARAP.
Data set [2] has as its target T1, uPARAP (Homo sapiens, UniProt Q9UBG0).
T1 sequence (Q9UBG0 31-1479): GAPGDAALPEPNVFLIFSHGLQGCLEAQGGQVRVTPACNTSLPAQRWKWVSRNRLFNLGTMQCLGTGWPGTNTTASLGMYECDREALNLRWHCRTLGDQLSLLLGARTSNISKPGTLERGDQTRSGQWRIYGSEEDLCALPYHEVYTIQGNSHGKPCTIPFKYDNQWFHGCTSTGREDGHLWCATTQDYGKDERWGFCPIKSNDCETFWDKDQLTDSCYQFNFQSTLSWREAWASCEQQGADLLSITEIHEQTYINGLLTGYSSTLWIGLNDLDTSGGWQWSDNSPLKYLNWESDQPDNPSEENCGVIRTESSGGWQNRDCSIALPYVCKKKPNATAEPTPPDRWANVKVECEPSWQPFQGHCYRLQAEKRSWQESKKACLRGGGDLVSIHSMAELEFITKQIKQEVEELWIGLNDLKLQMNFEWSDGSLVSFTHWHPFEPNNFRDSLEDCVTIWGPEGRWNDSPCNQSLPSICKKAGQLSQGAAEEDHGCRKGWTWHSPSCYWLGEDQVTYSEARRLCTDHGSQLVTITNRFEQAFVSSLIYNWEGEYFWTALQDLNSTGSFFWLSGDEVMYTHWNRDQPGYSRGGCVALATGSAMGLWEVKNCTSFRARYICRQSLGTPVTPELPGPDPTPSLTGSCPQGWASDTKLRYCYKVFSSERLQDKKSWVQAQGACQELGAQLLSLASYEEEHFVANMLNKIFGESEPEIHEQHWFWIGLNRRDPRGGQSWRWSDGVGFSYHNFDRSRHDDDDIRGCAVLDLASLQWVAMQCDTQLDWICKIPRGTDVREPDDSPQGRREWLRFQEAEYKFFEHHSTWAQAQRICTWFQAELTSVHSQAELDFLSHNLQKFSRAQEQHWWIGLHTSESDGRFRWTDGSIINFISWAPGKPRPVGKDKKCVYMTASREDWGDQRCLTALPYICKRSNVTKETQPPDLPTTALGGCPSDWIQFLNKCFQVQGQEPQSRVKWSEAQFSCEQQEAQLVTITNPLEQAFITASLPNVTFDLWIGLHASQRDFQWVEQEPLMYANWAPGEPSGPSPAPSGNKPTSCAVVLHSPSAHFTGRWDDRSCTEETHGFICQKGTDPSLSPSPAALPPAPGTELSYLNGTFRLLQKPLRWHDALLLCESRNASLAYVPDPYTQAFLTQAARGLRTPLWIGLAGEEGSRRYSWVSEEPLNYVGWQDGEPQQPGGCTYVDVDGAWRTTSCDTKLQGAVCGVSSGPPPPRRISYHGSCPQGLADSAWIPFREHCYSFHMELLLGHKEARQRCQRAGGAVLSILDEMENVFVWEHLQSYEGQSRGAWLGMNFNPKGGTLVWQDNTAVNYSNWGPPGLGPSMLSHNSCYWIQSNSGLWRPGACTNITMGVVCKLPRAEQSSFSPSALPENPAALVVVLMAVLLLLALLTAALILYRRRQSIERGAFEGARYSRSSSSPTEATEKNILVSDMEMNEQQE

Data set [3] has as its system other members of the mannose receptor family.

B1: mAb 5f4: mouse monoclonal IgG1K anti-uPARAP antibody, epitope in the FN-II domain (antibody, V domains shown)
VL: DIVMTQSQKFMSTSLGARVSITCKASQNVGSNVVWYQQKLGQSPKALIYSASSRFSGVPDRFTGSGSGTDFTLTISNVQSEDLAEYFCQQYNTYPLAFGAGTKLELK
VH: DVQLQESGPGLVKPSQSLSVTCTVTGYSITNAYYWNWIRHFPGNKLEWLGYIHSSGDTNYNPSLKSRISITRDTSKNQFFLQLNSVTTEDTATYYCARSPYYSNYFPYWGQGTLVTVSA
As for B1, the “Binding to uPARAP with FN-II domain swapped with that of other family members” value with uPARAP [1] was “not capable of binding”. Further, the “Binding to wildtype uPARAP” value in the data set with uPARAP [2] was “capable of binding”. In data set [3], the “Binding to artificial family members with FN-II domain switched with that of uPARAP” value is reported as “capable of binding” and the “Binding to other mannose receptor family members in wildtype form” value was “not capable of binding”.
